Here are results for 7 molecules from US20240010754A1 (JIANGSU HENGRUI MEDICINE, published 2024).

Positions count from the first letter of the chain named. In names and notes the source's numbering stands.

Sequences and labels used below:
T1: human FAP (human, UniProt Q12884 1-760)
T1 construct: whole, on cells; also called CHO/FAP; Flp-In CHO/FAP
T1 sequence (looked up): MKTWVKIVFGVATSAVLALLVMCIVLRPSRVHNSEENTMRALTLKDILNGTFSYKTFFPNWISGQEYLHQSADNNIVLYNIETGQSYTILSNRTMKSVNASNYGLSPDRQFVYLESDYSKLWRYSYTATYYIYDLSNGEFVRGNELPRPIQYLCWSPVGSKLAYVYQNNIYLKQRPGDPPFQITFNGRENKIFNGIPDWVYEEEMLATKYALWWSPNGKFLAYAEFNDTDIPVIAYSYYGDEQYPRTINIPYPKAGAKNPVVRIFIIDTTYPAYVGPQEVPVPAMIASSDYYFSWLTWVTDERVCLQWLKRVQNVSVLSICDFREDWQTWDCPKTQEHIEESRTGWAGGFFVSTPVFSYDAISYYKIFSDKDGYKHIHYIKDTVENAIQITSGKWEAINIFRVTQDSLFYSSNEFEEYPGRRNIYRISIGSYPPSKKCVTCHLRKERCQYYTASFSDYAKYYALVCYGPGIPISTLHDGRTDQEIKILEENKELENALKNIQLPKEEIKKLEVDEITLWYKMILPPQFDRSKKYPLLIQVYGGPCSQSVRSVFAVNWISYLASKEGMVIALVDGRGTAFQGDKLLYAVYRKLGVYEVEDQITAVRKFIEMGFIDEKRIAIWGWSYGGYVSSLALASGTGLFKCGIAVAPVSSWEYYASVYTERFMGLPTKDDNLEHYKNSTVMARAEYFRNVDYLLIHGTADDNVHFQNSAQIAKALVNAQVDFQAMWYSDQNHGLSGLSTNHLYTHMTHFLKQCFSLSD

B1: TJ030-PR1102 (bispecific antibody, human IgG1, kappa, L234A L235A)
heavy 1: not shown
light 1: DIVMTQTPLSLPVTPGEPASISCRSSQSLVHSTGNTYLEWYLQKPGQSPQLLIYKVSNRFSGVPDRFSGSGSGTDFTLKISRVEAEDVGVYYCFQGSHVPYTFGGGTKVEIKRTVAAPSVFIFPPSDEQLKSGTASVVCLLNNFYPREAKVQWKVDNALQSGNSQESVTEQDSKDSTYSLSSTLTLSKADYEKHKVYACEVTHQGLSSPVTKSFNRGEC
heavy 2: not shown
light 2: not shown
notes: 1+1 asymmetric knob-into-hole bispecific IgG1; knob on the PD-1 arm, hole on the CTLA-4 arm; tested after polishing purification; also called PD-1×CTLA-4 bispecific antibody (F126C-S121C placed into the CTLA-4 arm)
B2: TJ030-PR1106 (bispecific antibody, human IgG1, kappa, L234A L235A)
heavy 1: not shown
light 1: B1 light 1 with S126C, C219A
heavy 2: not shown
light 2: not shown
notes: 1+1 asymmetric knob-into-hole bispecific IgG1; knob on the PD-1 arm, hole on the CTLA-4 arm; tested after polishing purification; also called PD-1×CTLA-4 bispecific antibody (F126C-S121C placed into the PD-1 arm)
B3: TJ030-PR1108 (bispecific antibody, human IgG1, kappa, L234A L235A)
heavy 1: not shown
light 1: B1 light 1 with T169C, C219A
heavy 2: not shown
light 2: not shown
notes: 1+1 asymmetric knob-into-hole bispecific IgG1; knob on the PD-1 arm, hole on the CTLA-4 arm; tested after polishing purification; also called PD-1×CTLA-4 bispecific antibody (F170C-T164C placed into the PD-1 arm)
B4: TJ030-PR1104 (bispecific antibody, human IgG1, kappa, L234A L235A)
heavy 1: not shown
light 1: B1 light 1
heavy 2: not shown
light 2: not shown
notes: 1+1 asymmetric knob-into-hole bispecific IgG1; knob on the PD-1 arm, hole on the CTLA-4 arm; tested after polishing purification; also called PD-1×CTLA-4 bispecific antibody (F170C-T164C placed into the CTLA-4 arm)
B5: ERP2006-BS0015 (bispecific antibody)
heavy: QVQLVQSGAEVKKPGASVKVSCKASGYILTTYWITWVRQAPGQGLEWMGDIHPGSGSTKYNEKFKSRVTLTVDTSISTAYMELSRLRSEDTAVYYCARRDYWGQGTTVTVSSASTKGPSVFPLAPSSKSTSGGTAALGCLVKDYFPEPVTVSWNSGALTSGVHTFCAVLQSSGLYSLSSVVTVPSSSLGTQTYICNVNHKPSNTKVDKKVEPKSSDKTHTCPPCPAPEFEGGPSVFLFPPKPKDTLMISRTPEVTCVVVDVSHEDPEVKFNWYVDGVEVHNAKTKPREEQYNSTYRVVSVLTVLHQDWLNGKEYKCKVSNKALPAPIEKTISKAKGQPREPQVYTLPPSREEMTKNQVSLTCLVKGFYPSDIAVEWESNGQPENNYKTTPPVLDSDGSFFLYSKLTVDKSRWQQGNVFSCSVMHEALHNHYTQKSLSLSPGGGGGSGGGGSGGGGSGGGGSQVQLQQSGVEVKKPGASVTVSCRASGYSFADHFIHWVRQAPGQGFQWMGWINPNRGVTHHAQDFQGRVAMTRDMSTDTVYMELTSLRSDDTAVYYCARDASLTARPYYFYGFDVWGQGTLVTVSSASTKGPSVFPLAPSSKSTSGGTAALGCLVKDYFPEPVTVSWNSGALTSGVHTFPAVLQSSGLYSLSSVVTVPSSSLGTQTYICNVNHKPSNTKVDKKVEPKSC
light 1: DIVMTQSPLSLPVTPGEPASISCRSSQNIVNSQGNTYLEWYLQKPGQSPQLLIYKVTNRFSGVPDRFSGSGSGTDFTLKISRVEAEDVGVYYCFQASLVPWTFGGGTKVEIKGQPKAAPSVTLFPPSSEELQANKATLVCLISDFYPGAVTVAWKADSSPVKAGVETTTPCKQSNNKYAASSYLSLTPEQWKSHRSYSCQVTHEGSTVEKTVAPTESS
light 2: DIQMTQSPSSVSASVGDRVTITCRASQGISSWLAWYQQKPGKAPKLLIYAASSLQSGVPSRFSGSGSGTDFTLTISSLQPEDFATYYCQQANSFPPAFGQGTKVEIKRTVAAPSVFIFPPSDEQLKSGTASVVCLLNNFYPREAKVQWKVDNALQSGNSQESVTEQDSKDSTYSLSSTLTLSKADYEKHKVYACEVTHQGLSSPVTKSFNRGEC
notes: 2+2 symmetric bispecific: [CD40 VH-CH1]-Fc-linker-[FAP VH-CH1] heavy chain with two kinds of light chain; also called FAP×CD40 bispecific antibody
B6: ERP2006-BS0012 (bispecific antibody, human IgG1, kappa, lambda)
heavy: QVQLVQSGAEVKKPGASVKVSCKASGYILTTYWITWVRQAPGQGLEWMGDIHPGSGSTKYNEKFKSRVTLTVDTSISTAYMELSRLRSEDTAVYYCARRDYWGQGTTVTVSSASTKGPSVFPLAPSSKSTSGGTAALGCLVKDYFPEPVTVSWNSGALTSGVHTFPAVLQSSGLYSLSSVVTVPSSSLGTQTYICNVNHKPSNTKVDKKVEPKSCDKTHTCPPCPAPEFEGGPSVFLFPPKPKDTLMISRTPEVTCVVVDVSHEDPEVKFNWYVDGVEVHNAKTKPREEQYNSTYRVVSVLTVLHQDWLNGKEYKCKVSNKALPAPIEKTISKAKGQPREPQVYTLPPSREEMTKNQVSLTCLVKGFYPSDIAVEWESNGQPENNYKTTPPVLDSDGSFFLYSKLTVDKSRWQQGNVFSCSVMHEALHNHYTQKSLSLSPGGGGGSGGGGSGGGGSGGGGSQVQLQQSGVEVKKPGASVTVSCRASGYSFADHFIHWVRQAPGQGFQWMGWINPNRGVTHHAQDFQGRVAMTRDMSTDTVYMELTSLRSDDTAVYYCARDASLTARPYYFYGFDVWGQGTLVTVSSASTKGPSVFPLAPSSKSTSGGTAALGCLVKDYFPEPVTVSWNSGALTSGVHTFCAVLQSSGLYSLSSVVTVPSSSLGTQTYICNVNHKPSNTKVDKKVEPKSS
light 1: B1 light 1 with T7S, S28N, L29I, H31N, T33Q, S57T, G96A, H98L, Y101W
light 2: DIQMTQSPSSVSASVGDRVTITCRASQGISSWLAWYQQKPGKAPKLLIYAASSLQSGVPSRFSGSGSGTDFTLTISSLQPEDFATYYCQQANSFPPAFGQGTKVEIKGQPKAAPSVTLFPPSSEELQANKATLVCLISDFYPGAVTVAWKADSSPVKAGVETTTPCKQSNNKYAASSYLSLTPEQWKSHRSYSCQVTHEGSTVEKTVAPTESS
notes: as for B5
B7: parent FAP monoclonal antibody Ab10 (antibody, V domains shown)
VH: QVQLQQSGVEVKKPGASVTVSCRASGYSFADHFIHWVRQAPGQGFQWMGWINPNRGVTHHAQDFQGRVAMTRDMSTDTVYMELTSLRSDDTAVYYCARDASLTARPYYFYGFDVWGQGTLVTVSS
VL: DIQMTQSPSSVSASVGDRVTITCRASQGISSWLAWYQQKPGKAPKLLIYAASSLQSGVPSRFSGSGSGTDFTLTISSLQPEDFATYYCQQANSFPPAFGQGTKVEIK
notes: also called AblO

The target of the first assay is T2, human PD-1 (human, UniProt Q15116 25-288).
T2 construct: whole, on cells; also called CHO-K1/PD-1
T2 sequence (Q15116 25-288): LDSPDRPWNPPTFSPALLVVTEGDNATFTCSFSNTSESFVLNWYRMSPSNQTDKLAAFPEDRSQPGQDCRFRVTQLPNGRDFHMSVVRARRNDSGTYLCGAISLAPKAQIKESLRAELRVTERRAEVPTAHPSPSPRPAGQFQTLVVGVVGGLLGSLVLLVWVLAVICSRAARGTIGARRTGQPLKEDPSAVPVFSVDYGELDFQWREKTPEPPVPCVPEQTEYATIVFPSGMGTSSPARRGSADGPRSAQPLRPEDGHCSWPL
In words: flow cytometry cell cross-linking (CHO-K1/PD-1 + HEK293/CTLA-4 cells), antibody at 0.1 nM. As for the experimental part: (§1) The ability of PD-1×CTLA-4 bispecific antibodies to co-bind to cells highly expressing human PD-1 and human CTLA-4 after polishing purification was determined by flow cytometry. First, HEK293 cells were transiently transfected with human CTLA-4 plasmids, and 24 h after the transfection, the HEK293 cells highly expressing CTLA-4 were labeled with Cell Trace Far red (Invitrogen, C34564), and the CHO-K1/PD-1 stably transfected strain was labeled with Cell Trace Violet (Invitrogen, C34557). The cells were added to a 96-well U-bottom plate (Costar, 3599) at 2E5 cells/well, and the test antibody was diluted to 100 nM, 10 nM, 1 nM, 0.1 nM and 0.01 nM and added to the 96-well U-bottom plate at 50 μL/well, making a total volume of 150 μL/well. The plate was incubated at 4° C. in a dark place for 1 h. The double-positive cell percentage of HEK293/CTLA-4 of CTLA-4 and CHO-K1/PD-1 was determined by flow cytometry.
(§2) According to Example 1.4, the ability of each of the PD-1×CTLA-4 bispecific antibodies TJ030-PR1102 (F126C-S121C was placed into the CTLA-4 arm), TJ030-PR1104 (F170C-T164C was placed into the CTLA-4 arm), TJ030-PR1106 (F126C-S121C was placed into the PD-1 arm) and TJ030-PR1108 (F170C-T164C was placed into the PD-1 arm) to co-bind to cells highly expressing human PD-1 and human CTLA-4 after polishing purification was determined by flow cytometry, with CTLA-4 monoclonal antibody and IgG as negative controls. […] Such cross-linking of cells occurred in bispecific antibody molecule incubation only rather than monoclonal antibody or IgG1 incubation.
Turning to B1, the “proportion of double-positive cells” value was 11.8%.
For B2, the “proportion of double-positive cells” value stood at 19.1%.
On the same count and under the same terms, the figure for B3 is 17%; for B4 it is 18.2%.

For a further assay, the target named is T2, human PD-1. As to the kind of experiment: flow cytometry cell cross-linking (CHO-K1/PD-1 + HEK293/CTLA-4 cells), antibody at 0.3 nM. As to the method:
as §1, with “The cells were added to a 96-well U-bottom plate (Costar, 3599) at 2E5 cells/well, and the test antibody was diluted to 100 nM, 10 nM, 1 nM, 0.1 nM and 0.01 nM and added to the 96-well U-bottom plate at 50 μL/well, making a total volume of 150 μL/well.” left out
as §2
For B1, the “proportion of double-positive cells” value worked out at 20.7%.
Take B2: the “proportion of double-positive cells” value is 26.3%.
Still for that read-out and setting: the figure for B3 is 24.2%.
On to B4, for which the “proportion of double-positive cells” value was 25.3%.

Another assay addresses T2, human PD-1. In words: flow cytometry cell cross-linking (CHO-K1/PD-1 + HEK293/CTLA-4 cells), antibody at 100 nM. As for the experimental part: as §1, §2
(In general: In flow cytometry, cells or beads pass a laser one at a time.)
As to B1, the “proportion of double-positive cells” value worked out at 22.2%.
On the same count and under the same terms, under B2 stands 23.9%; under B3, 27.2%; under B4, 25.4%.

Another assay has as its target T2, human PD-1. In words: flow cytometry cell cross-linking (CHO-K1/PD-1 + HEK293/CTLA-4 cells), antibody at 3 nM. As to the method: as §1, §2
Take B1: the “proportion of double-positive cells” value came out at 32.2%.
Still for that read-out and setting: under B2 stands 37.4%.
On the same count and under the same terms, under B3 stands 35.3%.
Still for that read-out and setting: the figure for B4 is 35.8%.

Another assay concerns the target T2, human PD-1. In words: flow cytometry cell cross-linking (CHO-K1/PD-1 + HEK293/CTLA-4 cells), antibody at 0.03 nM. As to the method:
as §1, with “The cells were added to a 96-well U-bottom plate (Costar, 3599) at 2E5 cells/well, and the test antibody was diluted to 100 nM, 10 nM, 1 nM, 0.1 nM and 0.01 nM and added to the 96-well U-bottom plate at 50 μL/well, making a total volume of 150 μL/well.” left out
as §2
For the molecule B1, the “proportion of double-positive cells” value is 8.87%.
The same measure, in the same setting: the figure for B2 is 10.9%; for B3 it is 11.8%.
Still for that read-out and setting: the figure for B4 is 10.4%.

In a further assay the target is T3, human CD40 (human, UniProt P25942 21-277).
T3 construct: whole, on cells; also called HEK293/CD40; HEK-Blue CD40L cell
T3 sequence (P25942 21-277): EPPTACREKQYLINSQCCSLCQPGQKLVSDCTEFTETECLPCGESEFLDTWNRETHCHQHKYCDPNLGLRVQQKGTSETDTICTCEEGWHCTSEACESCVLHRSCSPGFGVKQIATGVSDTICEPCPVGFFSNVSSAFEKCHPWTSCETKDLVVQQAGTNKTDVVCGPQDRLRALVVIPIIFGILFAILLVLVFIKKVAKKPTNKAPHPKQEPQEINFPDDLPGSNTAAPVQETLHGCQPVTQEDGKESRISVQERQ
In words: FACS binding to HEK293/CD40 cells. As for the experimental part: (§3) CHO cells stably expressing human FAP (i.e., CHO/FAP cells) and HEK293 cells 48 hours after transient transfection (i.e., HEK293/CD40 cells) in the logarithmic growth phase were collected by centrifugation, washed with PBS and then centrifuged. The cells were plated at 2E5 cells/100 μL/well and centrifuged at 400 g for 5 min Different concentrations of test antibody were added. The cells were incubated on ice for 1 h, washed with PBS and centrifuged at 400 g for 5 min The goat anti-human secondary antibody Alexa Fluor 488 with a fluorophore was added, and the cells were stained in an ice bath for 1 h, washed twice with PBS and then assayed on a flow cytometer.
(§4) The bispecific antibodies ERP2006-BS0012 and ERP2006-BS0015 have similar affinity for FAP to the parent FAP monoclonal antibody AblO and similar affinity for CD40 to the parent CD40 monoclonal antibody 9E5-25.
As a reminder, the EC50 is the concentration needed to bring the measured effect to its halfway point. On to B5, for which a half-maximal response (EC50) required 456 pM.
Same read-out and setting: under B6 stands 471 pM.

A further assay addresses T2, human PD-1. As to the kind of experiment: flow cytometry cell cross-linking (CHO-K1/PD-1 + HEK293/CTLA-4 cells), antibody at 10 nM. As for the experimental part:
as §1, §2
Turning to B1, the “proportion of double-positive cells” value came to 32.4%.
Still for that read-out and setting: under B2 stands 38.1%; under B3, 37.7%; under B4, 34.8%.

The target in another assay is T2, human PD-1. In words: flow cytometry cell cross-linking (CHO-K1/PD-1 + HEK293/CTLA-4 cells), antibody at 1 nM. As to the method: as §1, §2
B1: the “proportion of double-positive cells” value is 25.1%.
On the same count and under the same terms, the figure for B2 is 34.7%; for B3 it is 33.2%.
The same measure, in the same setting: the figure for B4 is 30.5%.

The target of another assay is T2, human PD-1. As to the kind of experiment: flow cytometry cell cross-linking (CHO-K1/PD-1 + HEK293/CTLA-4 cells), antibody at 30 nM. As for the experimental part:
as §1, §2
In the case of B1, the “proportion of double-positive cells” value turned out to be 26.7%.
The same measure, in the same setting: the figure for B2 is 33.1%; for B3 it is 31.4%.
Same read-out and setting: under B4 stands 32.1%.

In the next assay the target is T1, human FAP. In words: FACS binding to CHO/FAP cells. As to the method: as §3, §4
Molecule B5 gave a 50% effective concentration (EC50) of 336 pM.
Same read-out and setting: under B6 stands 349 pM.
On to B7, for which the binding result is recorded as “binds”.
